Measured values: the DeepSol protein solubility set

Test: soluble on expression in E. coli; label from the status in PepcDB or PDB records

| Sequence | soluble on expression in E. coli |
| --- | --- |
| NNINVITDQMGNLDIKSNDNINQNTQNSNVASDLNLLTQNKYLENILMMNTYGVNYDHLFLPQNVAYLAAQQLSNNIMNNRNQINAAYTSQQYPNQSIPIKNIYDQSHLKYQQNSSSWRPPLNNGNIYDGVKSNPMGLHILQNGIDLYTNVDSNSVTSAINFDKYDSIPVSVTGPDYSATNVIENFDELKLDPTIRNNILLASYQRPTPIQKNAIPAILEHRDIMACAQTGSGKTAAFLIPIINHLVCQDLNQQRYSKTAYPKCLILAPTRELAIQILSESQKFSLNTPLRSCVVYGGADTHSQIREVQMGCHLLVATPGRLVDFIEKNKISLEFCKYIVLDEADRMLDMGFEPQIRKIIEESNMPSGINRQTLMFSATFPKEIQKLAADFLYNYIFMTVGRVGSTSDSIKQEIIYMTDVEKLNYLKNIFNTTAPNTLILIFVETKKGADSLARFLLSKGYPVSSIHGDRSQVEREAALSMFRNGQCPILVATAVAARGLDIPNVKHVINYDLPSDIEEYVHRIGRTGRLGNHGRATSFYVDKNNNIAIDLVDLLKEANQIVPQWLSALADELKRNSTMGSNNKRHNQRRYKNGNFGGRDYRQGPSNVNMNSGVNPDYFISGSVAPRHAKLNNGNYFPRSNELHDQHQKQNNNNNQVISNTFHTGISASHLIPGYATFNRQQAPLHFIPHQTNNTQFLSSSGQMALYNRMQNSGHMAPNQRFPNEPIHHQQEQLPITYNFSKNLPYLGQSYSGHNNNNNNNNNTSKINDSDSCYFGNKTPR | soluble |
| NQVEKSLISSYEQSLNQRIDNLSYYIEQEYKSDNDSTVIKDDVSRILNDFTKSDEVREISFVDKSYEVVGSSKPYGEEVAGKQTTDLIFKRIFSTKQSYLRKYYDPKSKIRVLISAKPVMTENQEVVGAIYVVASMEDVFNQMKTINT | not soluble |
| NSLFNQEVQIPLTESYCGPCPKNWICYKNNCYQFFDESKNWYESQASCMSQNASLLKVYSKEDQDLLKLVKSYHWMGLVHIPTNGSWQWEDGSILSPNLLTIIEMQKGDCALYASSFKGYIENCSTPNTYICMQRTV | soluble |
| NSLSTDMSVNRDNRTITSSIMRVSNSSELIQFKNKTAPYFSEKRNVEVNINGVAKDIYGRQIVCRHLASYWEMNFMETNGKVNYQLLSTPDAIAKNVCLEKTEDFSKSPAYIYFVENKKWGTVITNFFYNMKKNGDFVRTLSACTLNHQMALGLKIKRVQESEKWVVQFFDPNRTVTHKRTVFTCDSHFELSQLSAKDFFDDFYWKIYGLEQPGQVIFEDRHNSPLTNTVKLLPDELINSRVIYHAITKNLTEVLFILMEKYKNGEISQSKLVNLLATRSSDGTPAFYIALQNGYSDIIQVYGKILNMCNLSQETILTLLAAVGANNVPGLCMSFMNGHVDTIKAYGEIVFKTPLTSDKRLYLLAAKDSHDLPGLFFALQNGHADSIRMFGSLLNKKMLSSEQIKELLKVKHGLFMALQNGHTKAIMAYGDILKILPPHQEYIDELLWIKNPNGTSGLFMAFYNGHTETIRAFCNILKNYSFTTRRLVEMLSATNKDGIPGVFVSVVNRDKETILEYCRIIKENNLEPDTIAEQFSKKMKKTFIEIINRFNHFL | soluble |
| NVHREWAANEKTAMESALGMSYAGKRALVCMKHVGMNVAADCFMNAAITGANGGMVIVAADDPSMHSSQNEQDSRVYGQFAMIPVMEPSNQQEAYDMTRLAFDLSERLGTPVMMRITTRLAHSRAGVVQTEPIGENELHLPEDKRQYVLLPGIAKKRYRILLDKQTDFVRESENSPYTEYVDAADKSKGIVACGIAYNYLMEAFKAQVPYPVLKVTQYPIPHKQMERLLNECGDIVVMEEGYPVVEQLLKGFPGLERIKGRLDGTLPRDGELNPDHVAKAFNIPVVEGEPIPDLVAARPPALCKGCSHRDVYDALNEVLTEYPNGRVFSDIGCYTLGALPPYEAINSCVDMGASITMAKGAADAGLFPAVSVIGDSTFTHSGITGLLDAINENSNITVIISDNESISMTGGQH | not soluble |
| NYMGNPWTEYMAKYDIEEVHGSGIRVDLGEDAEVAGTQYRLPSGKCPVFGKGIIIENSNTTFLTPVATGNQYLKDGGFAFPPTEPLMSPMTLDEMRHFYKDNKYVKNLDELTLCSRHAGNMIPDNDKNSNYKYPAVYDDKDKKCHILYIAAQENNGPRYCNKDESKRNSMFCFRPAKDISFQNYTYLSKNVVDNWEKVCPRKNLQNAKFGLWVDGNCEDIPHVNEFPAIDLFECNKLVFELSASDQPKQYEQHLTDYEKIKEGFKNKNASMIKSAFLPTGAFKADRYKSHGKGYNWGNYNTETQKCEIFNVKPTCLINNSSYIATTALSHPIEVE | soluble |
| PADLSGTWTLLSSDNFEGYMLALGIDFATRKIAKLLKPQKVIEQNGDSFTIHTNSSLRNYFVKFKVGEEFDEDNRGLDNRKCKSLVIWDNDRLTCIQKGEKKNRGWTHWIEGDKLHLEMFCEGQVCKQTFQRA | soluble |
| PALVLEGDMTAPTLVIGWGSTFGSLKSAVQQCLEQGLPVAYLHLRHLNPLPDDLGSLLKKYDKVLVAELNSGQLCQLIRAVYLVDAQSISQCNGQPFSVNPLVSAIKAEANYEQQL | not soluble |
| PDLIYYRNADGVFSGCNRAMEELTGKKEHQLVGLSPWDVYSKEIAQPIVDTDQKVFSDNQAITYEQWLEYPDGRKHYFELRKVPFYSKD | not soluble |
| PGAPRRLIDAALAAGAQGLVIEAMGSGNVGTDIGVALGEALDAGIPVVISTRVPRGEVFGAYGGAGGGKTLASKGAVNSTYFRSGQARVLLAIAIASGVHPATLL | not soluble |
| PGRFALVFKDVTDRRRSEEALRESEAMFRSLTEAMPQLVWSARPDGSCDFFNRRWTDCTGASTEMAMGDGWRAFYHPDDQPAIDRLWPKALRTGEHYEIEYRLRHRDGSYRWMLGRGVPVRDEAGGILRWMGTCTDIH | not soluble |
| PHANGLEQISGGDTNMFRLAKEQGYETYFYSAQAENEMAILNLIGKKWIDHLIQPTQLGYGNGDNMPDEKLLPLFDKINLQQGKHFIVLHQRGSHAPYGALLQPQDKVFGEADIVDKYDNTIHKTDQMIQTVFEQLQKQPDGNWLFAYTSDHGQYVRQDIYNQGTVQPDSYLVPLVLYSPDKAVQQAANQAFAPCEIAFHQQLSTFLIHTLGYDMPVSGCREGSVTGNLITGDAGSLNIRDGKAEYVYPQ | not soluble |
| PKIENPILIEGYPGIGLVGHIAANFLAKELKMEVIGYVESSFIPPMSLILEGKPNPPLRFYGKDNIIIAVADIYLPPTLINEIAKEIANYLEQNKAEKVISLGGMGIGIFKDKFEVWGVGGTEEENKELQDLGVKILEYGSISGMSGKLLWEASRRGLKSYVILGETFGDRPDPRAAANVVEVLDRMLTLNVSVEPLLKEAEMIEEQLRKMHEQMEKARRSVEKQYETMYL | not soluble |
| PKLPTISQFNVTPFLAFISPDYKTHIDPNEVESVFEVPANHILNPNKLYSSKFELKRSSHRVFAIPYRQHFIWGMTAQIIESMQKHIISG | not soluble |
| PLGLAPTASTTATLAMGDALAVALLIERGFRPEDFALFHPGGSLGKKLLLTVGDLMHSGDAVPLVGSATPIRDALFVITAKGLGITGVCAEDGALVGVVTDGDLRRSLGKGVDILNQPAGEIMTRNPKRINRSELAAKALQVMESHSITSLFVFDDTADNRPVGVIHLHDLLRA | not soluble |
| PLVKISGSSTVFPITEAVSEDFQAAKKGAIMVTAGIAGTGGGFKKFCRDEVDIVNASRPILSSEMEQCRQNGVQYIEMPIAFDALTVVVNPGNDWIKSMTVAELKKIWEPAAQEKILNWNQVNPAWPNARIKLFGAGADS | not soluble |
| PNIEFFTLKTPDGSELDSVQVTGEDEEKKPMGERKFIITCIARDQNFINWIKDLNYTAKNLGATAISFNYRGVDYSRGLVWTENNLVDDILAQVQRLISLGADPKNICLDGMCIGGAVATIAAAKLHEKG | not soluble |
| PNKDVKIVKEVLLYKGSPFTGNIIMNTEDQKDGYIGGISLKNGHLDGLSELKNDRQGQHMRFTVVGGKFDGELIMNDPSQNTYIMLDINKGAIVKYLADIQGVYKYDLNFVNNLANGSMEAQGQIFTFKNGIAKGPQGQELKLTLNPATGDLEMEAFVNGKAAGKQTIPNVLTPQYLESFLFQSITDTNN | not soluble |
| PPESDGFSDVRKVGYLRKPKSMHKRFFVLRAASEAGGPARLEYYENEKKWRHKSSAPKRSIPLESCFNINKRADSKNKHLVALYTRDEHFAIAADSEAEQDSWYQALLQLHNRAKGHHDGAAALGAGGGGGSCSGSSGLGEAGEDLSYGDVPPGPAFKEVWQVILKPKGLGQTKNLIGIYRLCLTSKTISFVKLNSEAAAVVLQLMNIRRCGHSENFFFIEVGRSAVTGPGEFWMQVDDSVVAQNMHETILEAMRAMSDEFRPR | soluble |
| PPRKKVATGRRDITKKSEGKPHPTQTYEHELLATQLSNKKMMPFKSQIRARSFDEYKDWVCHDGEEFLLILSGEVMFYSEFYEPVVLSEGDSVYYDANMGHMLTSVSEEDAQILWVTAK | not soluble |
| PQASAKEYVTTTGLSPDGNQYSIGWEVPSTQEPARRSKRSTKDYAFETNQLENGMQTLIHIENSEAPTEYRFPLSLPQEAEVIPFSEGSED | not soluble |
| PRAAARGGGGDAGTRGRGFVQAGRGAPMAECGRGGAAGGALPTSPGPALGAKGALKAGVGEGGGGGGRLGHGRARYDSGGVSNGDCSLGVSGDEARASPTRGPRGVALAPTPSAVVCTLPRESKPGGLPRRSSIIKDGTKQKRERKKTVSFSSMPTEKKISSASDCINSMVEGSELKKVRSNSRIYHRYFLLDADMQSLRWEPSKKDSEKAKIDIKSIKEVRTGKNTDIFRSNGISDQISEDCAFSVIYGENYESLDLVANSADVANIWVTGLRYLISYGKHTLDMLESSQDNMRTSWVSQMFSEIDVDNLGHITLCNAVQCIRNLNPGLKTSKIELKFKELHKSKDKAGTEVTKEEFIEVFHELCTRPEIYFLLVQFSSNKEFLDTKDLMMFLEAEQGVAHINEEISLEIIHKYEPSKEGQEKGWLSIDGFTNYLMSPDCYIFDPEHKKVCQDMKQPLSHYFINSSHNTYLIEDQFRGPSDITGYIRALKMGCRSVELDVWDGPDNEPVIYTGHTMTSQIVFRSVIDIINKYAFFASEYPLILCLENHCSIKQQKVMVQHMKKLLGDKLYTTSPNVEESYLPSPDVLKGKILIKAKKLSSNCSGVEGDVTDEDEGAEMSQRMGKENMEQPNNVPVKRFQLCKELSELVSICKSVQFKEFQVSFQVQKYWEVCSFNEVLASKYANENPGDFVNYNKRFLARVFPSPMRIDSSNMNPQDFWKCGCQIVAMNFQTPGLMMDLNIGWFRQNGNCGYVLRPAIMREEVSFFSANTKDSVPGVSPQLLHIKIISGQNFPKPKGSGAKGDVVDPYVYVEIHGIPADCAEQRTKTVHQNGDAPIFDESFEFQINLPELAMVRFVVLDDDYIGDEFIGQYTIPFECLQTGYRHVPLQSLTGEVLAHASLFVHVAITNRRGGGKPHKRGLSVRKGKKSREYASLRTLWIKTVDEVFKNAQPPIRDATDLRENMQNAVVSFKELCGLSSVANLMQCMLAVSPRFLGPDNTPLVVLNLSEQYPTMELQGIVPEVLKKIVTTYDMMIQSLKALIENADAVYEKIVHCQKAAMEFHEHLHSIGTKEGLKERKLQKAVESFTWNITILKGQADLLKYAKNETLENLKQIHFAAVSCGLNKPGTENADVQKPRRSLEVIPEKANDETGE | soluble |
| PVERMRMRPWLEEQINSNTIPGLKWLNKEKKIFQIPWMHAARHGWDVEKDAPLFRNWAIHTGKHQPGIDKPDPKTWKANFRCAMNSLPDIEEVKDRSIKKGNNAFRVYRMLP | soluble |
| PVTETVDGQGQAWRHHNGFDFAVIKELKTAASQYGATAPYTLAIVESVADNWLTPTDWNTLVRAVLSGGDHLLWKSEFFENCRDTAKRNQQAGNGWDFDMLTGSGNYSSTDAQMQYDPGLFAQIQAAATKAWRKLPVKGD | soluble |
| PYSYDLIFGDVNTTNFYAQFAKKHNTHMWSKIQSTQNGEIGFHKNSKTGQQRH | soluble |
